{"source": "patent US11312773B2", "about": "“Anti-PD-L1 antibody” (Fuso Pharmaceutical Industries, Ltd., priority 2016, dated 2022)", "molecules": {"B1": {"name": "4G12: rat anti-bovine PD-L1 monoclonal antibody; VL SEQ ID NO: 1, VH SEQ ID NO: 2 (antibody, listed as Rattus norvegicus, V domains shown)", "VH": "MGWSQIILFLVAAATCVHSQVQLQQSGAELVKPGSSVKISCKASGYTFTSNFMHWVKQQPGNGLEWIGWIYPEYGNTKYNQKFDGKATLTADKSSSTAYMQLSSLTSEDSAVYFCASEEAVISLVYWGQGTLVTVSS", "VL": "MESQTHVLISLLLSVSGTYGDIAITQSPSSVAVSVGETVTLSCKSSQSLLYSENQKDYLGWYQQKPGQTPKPLIYWATNRHTGVPDRFTGSGSGTDFTLIISSVQAEDLADYYCGQYLVYPFTFGPGTKLELK"}}, "key": {"ovine PD-L1": {"test_system": "ovine PD-L1", "test": "Flow cytometry reactivity with ovine PD-L1-EGFP expressing COS-7 cells", "format": "binding", "details": "10 μg/ml", "protocol": "(§1) COS-7 cells were subcultured at a density of 5×10^4 cells/cm^2 in 6-well plates, and then cultured overnight in RPMI 1640 medium containing 10% inactivated fetal bovine serum and 0.01% L-glutamine at 37° C. in the presence of 5% CO2. The pEGFP-N2-ovPD-1, pEGFP-N2-ovPD-L1, pEGFP-N2-poPD-1, pEGFP-N2-poPD-L1 or pEGFP-N2 (negative control) was introduced into COS-7 cells at 0.4 μg/cm^2 using Lipofectamine 2000 (Invitrogen). The cells were cultured for 48 hours (ovPD-1-EGFP expressing cell, ovPD-L1-EGFP expressing cell, poPD-1-EGFP expressing cell, and poPD-L1-EGFP expressing cell). In order to confirm the expression of ovine PD-1, ovine PD-L1, porcine PD-1 and porcine PD-L1 in the thus prepared expressing cells, intracellular localization of EGFP was visualized with an inverted confocal laser microscope LSM700 (ZEISS) or an all-in-one fluorescence microscope BZ-9000 (KEYENCE). It was confirmed by flow cytometry that rat anti-bovine PD-L1 monoclonal antibody cross-reacts with ovine and porcine PD-LL. […] After washing, the cells were reacted with allophycocyanine-labeled anti-rat Ig goat antibody (Beckman Coulter) at room temperature for 30 min. For analysis, FACS Verse (BD Bioscience) was used. As a negative control antibody, rat IgG2a (κ) isotype control (BD Bioscience) was used. For every washing operation and dilution of antibodies, 1% bovine serum albumin supplemented PBS was used."}, "[1]": {"target": "T1, canine PD-1/PD-L1 binding (Canis lupus familiaris, UniProt A0A8I3P7C4)", "T1 construct": "made in house; host or cells: Expi293F", "T1 sequence (A0A8I3P7C4 19-237)": "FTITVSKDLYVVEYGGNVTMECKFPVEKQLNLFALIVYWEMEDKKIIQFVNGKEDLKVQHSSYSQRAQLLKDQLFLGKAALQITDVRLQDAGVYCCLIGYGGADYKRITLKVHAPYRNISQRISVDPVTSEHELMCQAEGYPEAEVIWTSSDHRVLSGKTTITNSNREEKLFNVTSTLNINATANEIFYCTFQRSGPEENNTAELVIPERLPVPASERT", "test": "Canine PD-1/PD-L1 binding inhibition ELISA (cPD-1-Ig immobilized, biotinylated cPD-L1-Ig)", "details": "antibody 0, 2.5, 5 and 10 μg/ml", "protocol": "Briefly, canine PD-1-Ig (prepared in 2.4 above) was immobilized on flat bottomed 96-well plates and blocked with 1% BSA and 0.05% Tween 20-containing PBS. […] The binding of cPD-L1-Ig to cPD-1-Ig was measured by color reaction using Neutravidin-HRP (Thermo Fisher Scientific) and TMB one component substrate (Bethyl Laboratories).\nBriefly, heavy chain and light chain variable region genes were identified from hybridomas producing rat anti-bovine PD-L1 monoclonal antibodies 4G12 and 6G7. Further, the heavy chain and light chain variable region genes of the above rat antibodies were linked to the constant region of heavy chain IgG4 and the constant region of light chain Lambda of a known canine antibody, respectively, to prepare nucleotide sequences, followed by codon optimization (SEQ ID NOS: 9 and 10 (amino acid sequences), SEQ ID NOS: 19 and 20 (nucleotide sequences after codon optimization). Then, synthesis of genes was performed so that NotI restriction enzyme recognition site. KOZAK sequence, chimeric antibody's light chain sequence, poly-A addition signal sequence (PABGH), promoter sequence (PCMV), SacI restriction enzyme recognition site, intron sequence (INRBG), KOZAK sequence, chimeric antibody's heavy chain sequence and XbaI restriction enzyme recognition site would be located in this order. […]"}, "water buffalo leukocytes": {"test_system": "water buffalo leukocytes", "test": "Flow cytometry reactivity with water buffalo leukocytes", "format": "binding, water buffalo (Bubalus bubalis)", "protocol": "Peripheral blood of water buffalo (Bubalus bubalis; Asian water buffalo) was hemolyzed with ACK buffer to isolate leukocytes. […] After washing, reaction with allophycocyanine-labelled anti-rat Ig goat antibody (Beckman Coulter) and fluorescein isothiocyanate-labeled anti-mouse IgG2 goat antibody (Beckman Coulter) was conducted at room temperature for 30 min. For analysis, FACS Calibur (BD Biosciences) was used. As a negative control antibody, rat IgG2a (κ) isotype control (BD Biosciences) was used. For every washing operation and dilution of antibodies, 10% inactivated goat serum supplemented PBS was used."}, "[2]": {"test_system": "porcine PD-1/PD-L1 binding", "test": "Porcine PD-1/PD-L1 binding inhibition test (PD-1-EGFP COS-7 cells and PD-L1-Ig)", "details": "antibody 0-50 μg/ml, porcine PD-L1-Ig 5 μg/ml", "protocol": "Using ovine PD-1-EGFP expressing COS-7 cells and ovine PD-L1-Ig recombinant protein, or porcine PD-1-EGFP expressing COS-7 cells and porcine PD-L1-Ig recombinant protein, inhibition of ovine or porcine PD-1/PD-L1 binding by rat anti-bovine PD-L1 antibody […] was tested. […] Subsequently, the antibody 4G12 was reacted with 2×10^5 ovine PD-1-EGFP expressing COS-7 cells or porcine PD-1-EGFP expressing COS-7 cells at 37° C. for 30 min. After washing, ovine PD-L1-Ig or porcine PD-L1-Ig bound to cell surfaces was detected with Alexa Fluor 647-labeled anti-rabbit IgG (H+L) goat F(ab′)2 (Life Technologies). For analysis, FACS Verse (BD Biosciences) was used. As a negative control antibody, rat IgG2a (κ) isotype control (BD Biosciences) was used. Taking the proportion of PD-L1-Ig bound cells without antibody addition as 100%, the proportion of PD-L1-Ig bound cells at each antibody concentration was shown as relative value."}, "porcine PD-L1": {"test_system": "porcine PD-L1", "test": "Flow cytometry reactivity with porcine PD-L1-EGFP expressing COS-7 cells", "format": "binding", "details": "10 μg/ml", "protocol": "as §1"}}, "data": [{"molecule": "B1", "values": [{"measurement": "Binding to ovine PD-L1", "setting": "ovine PD-L1", "result": "binds to ovine and porcine PD-L1"}, {"measurement": "Inhibitory activity against canine PD-1/PD-L1 binding", "setting": "[1]", "result": "reduced the amounts of binding"}, {"measurement": "Binding to blood macrophages (CD14+ CD11b+ cells) of water buffalo", "setting": "water buffalo leukocytes", "result": "strongly bound"}, {"measurement": "Binding to lymphocytes (CD14− CD11b− cells) of water buffalo", "setting": "water buffalo leukocytes", "result": "weakly bound"}, {"measurement": "Inhibition of porcine PD-1/PD-L1 binding", "setting": "[2]", "result": "capable of inhibiting"}, {"measurement": "Binding to porcine PD-L1", "setting": "porcine PD-L1", "result": "binds to ovine and porcine PD-L1"}]}]}
